16 sequences from a protein production outcome set (Wang et al. 2014) can be followed below.

The data set in a line: label from the status in PepcDB records.
With “MRDDVFGQSNSLTRADSAEAWDGVLLGFMAHAAVTPQHLARVLELEPDFALAHAIKGLFMLLLGRREMTPVAIEAMAAAERAAAARAITAREGHYLAALRHWLAGNPSRSVQEFEAILRAHPDDTLAMKLSHATRFVLGDPAGMRRSIERVMPAYAPDHAGRGYLLGCHAFALEETGAYDKAEIAGRQALWMVSDDAWGLHAVAHVHEMKGQSELGLDWLAGREAAWSHCNNFRYHVWWHKALMHLDQGQIDQVFDLYDSAIRKDKTDDYRDISNATSLLSRLELEGVNVGDRWEELADLSAARTEDGCLIFADLHYLLALTGDTREDAISRMLHRIKRDADMAQCDTTRRMADPGLAAAQGLEAFGEGQYGQAFDHLLTARGSMQLAGGSHAQRDVFERITIDAGLRAGRLDAVERVLDDRRAKRGGHEDTYALARRALIEAGRDDRNIHSVPAE”, the protein production result is reported as “failed”.
As for “MITRLTDIELEQIRGVIFDLDGTLAHSNPDFKGLRAALGIGSGTDILEHIHSLETTVAKMQALEIVHDYELESSRQASWIEGAQALIAFLKTRQLPLAILTRNMPEAAKITIEKLGIDIPLVLTRYDAEPKPHPQGIYLICEQWQLNPADILYVGDYLFDLQTAQNAGSRCALYCPEDVPDYAQAADLLVSCYHSLIQAWPK”, the protein production entry is “failed”.
Take “MPMTIKRATWNNGPDLAFDINNKANAAIEKYGREAVINAALGTLLDDKGKIIALPSVYDRLDEMDRSHIASYAPIEGEKDYRKIVIDTLFGPYKPEGYISAIATPGGTGAIRSAIFSYLDEGDPLICHDYYWAPYRKICEEFGRNFKTFEFFTDDFAFNIDVYKEAIDEGIRDSDRIASLINSPGNNPTGYSLSDEEWDEVITFLKEKAEDKDKKITLIVDVAYLEFAGDGDQQRKFFEKFSNLPRNLFVVVAFSMSKSHTAYGLRSGAAVGISSSKEIIEEFEASLAHSARCNWSNGTHAAQNILIELERAENKKIYEQELVDLRNMLKSRADVFVTAAKENKLTMIPYFGGFFTFIPTDKAFDIVKDLEKENIFTIPSAKGIRVAICGVGEEKIPKLVQRLAFYTNKK”: the protein production result is listed as “not failed”.
In the case of “MKRCDRMNYREEYEKKLISPEEAAGLVESGMHIELGGAANTALIIDKYLAKRKDELENVKVGTFIDLAHYEFLKADPNGEVFEWSSGFLYRPVRKTSKELGPCVFRPNLYHDVPKIVREFSKDYDPIDIAYLVTTPMDKHGYFNFGLTCSHMKALAEVAEKVVVVVKENMPWVNGGYDECIHISEVDYIVEDNEMPVPFIPFSIPPTKEDEMIAENILNAETKDGRKLIQDGSTLQVGIGGLPDTVVKMLKEGGYKNLGVHTEMMGDGTLELIEEGVVTNDQKRLDRGKSVFTFALGSLKLYEYLDRNPEVATYPVDYTNDPFIIAQQPKMFSLNQAAEADLMGQINSEQMGLISPTGKLYQVSGTGGQLDFVMGCLFSRDRQGFSILAMYSTHNGTSRIKPILPPGAAVTVPRSMVQVVATEWGVAYLKGLTVKERAIAMIHLAHPDHREWLEKEAEKLGLLPPNYTIPAGKPDYLLYKRDLEHHHHHH”, the protein production result is on record as “not failed”.
On to “GQVDGEDVVSISSADLDETEGNLNMTTVSVRSGMTLSQVISRWLFTDDTIVPIEQVFPPGQSTEEVEESNRTAFISSESSATIAAMNYLNIPVEVEVAEVLTDSAATGIFEPGDKLLSIDGTAISTPGDAQTIVRSKAPGDEITISYERNDAESQATITLREHPDDSSVALLGISMLSVP”, for which the protein production result is “failed”.
The entry for “PSPGGQMHAGISSFQQSNSSGTYGPQMSQYGPQGNYSRPPAYSGVPSASYSGPGPGMGISANNQMHGQGPSQPCGAVPLGRMPSAGMQNRPFPGNMSSMTPSSPGMSQQGGPGMGPPMPTVNRKAQEAAAAVMQAAANSAQSRQGSFPGMNQSGLMASSSPYSQPMNNSSSLMNTQAPPYSMAPAMVNSSAASVGLADMMSPGESKLPLPLKADGKEEGTPQPESKSKDSYSSQGISQPPTPGNLPVPSPMSPSSASISSFHGDESDSISSPGWPKTPSSPKSSSSTTTGEKITKVYELGNEPERKLWVDRYLTFMEERGSPVSSLPAVGKKPLDLFRLYVCVKEIGGLAQVNKNKKWRELATNLNVGTSSSAASSLKKQYIQYLFAFECKIERGEEPPPEVFSTGDTKKQPKLQPPSPANSGSLQGPQTPQSTGSNSMAEVPGDLKPPTPASTPHGQMTPMQGGRSSTISVHDPFSDVSDSSFPKRNSMTPNAPYQQGMSMPDVMGRMPYEPNKDPFGGMRKVPGSSEPFMTQGQMPNSSMQDMYNQSPSGAMSNLGMGQRQQFPYGASYDRRHEPYGQQYPGQGPPSGQPPYGGHQPGLYPQQPNYKRHMDGMYGPPAKRHEGDMYNMQYSSQQQEMYNQYGGSYSGPDRRPIQGQYPYPYSRERMQGPGQIQTHGIPLQMMGGPLQSSSSEGPQQNMWAARNDMPYPYQNRQGPGGPTQAPPYPGMNRTDDMMVPDQRINHESQWPSHVSQRQPYMSSSASMQPITRPPQPSYQTPPSLPNHISRAPSPASFQRSLENRMSPSKSPFLPSMKMQKVMPTVPTSQVTGPPPQPPPIRREITFPPGSVEASQPVLKQRRKITSKDIVTPEAWRVMMSLKSGLLAESTWALDTINILLYDDSTVATFNLSQLSGFLELLVEYFRKCLIDIFGILMEYEVGDPSQKALDHNAARKDDSQSLADDSGKEEEDAECIDDDEEDEEDEEEDSEKTESDEKSSIALTAPDAAADPKEKPKQASKFDKLPIKIVKKNNLFVVDRSDKLGRVQEFNSGLLHWQLGGGDTTEHIQTHFESKMEIPPRRRPPPPLSSAGRKKEQEGKGDSEEQQEKSIIATIDDVLSARPGALPEDANPGPQTESSKFPFGIQQAKSHRNIKLLEDEPRSRDETPLCTIAHWQDSLAKRCICVSNIVRSLSFVPGNDAEMSKHPGLVLILGKLILLHHEHPERKRAPQTYEKEEDEDKGVACSKDEWWWDCLEVLRDNTLVTLANISGQLDLSAYTESICLPILDGLLHWMVCPSAEAQDPFPTVGPNSVLSPQRLVLETLCKLSIQDNNVDLILATPPFSRQEKFYATLVRYVGDRKNPVCREMSMALLSNLAQGDALAARAIAVQKGSIGNLISFLEDGVTMAQYQQSQHNLMHMQPPPLEPPSVDMMCRAAKALLAMARVDENRSEFLLHEGRLLDISISAVLNSLVASVICDVLFQIGQL” is “not failed”; for “MVVSVLMPTYNHERFIEQAILSFIQQQVDFDIELLIGDDCSSDNTSFIARIYAEKYPNKIHLFQYSVNRGLMHNYKYLLNQAKGKYIAILESDDIWLDPFKLHKQVEIIEKTPNCGLVFSNWIVIDADSKEVTRSQRTLKTIGYSDLLKSNMVAAVTVLFSRNMFDLYCDIDEYILRNFKTLDYPVWLSISAHSNIIYLDDYTAGYRCLSTSISNSNSYQRSMAFNQSIDAIVQYVVSKYGKGELTIKELENASKLRYLTQAFQFKKFSQAFSIAWTFHATNIKSFIIKVLPFIWLCKNRKLIGQRLK” it is “failed”.
In the case of “MQAVHGRSRKPADPAYQAGLAEELRQSYGRAGLIELYGRFATGDGVVDSLMRKAIWQAITRRCGEGLQVASGAGFKHPETFEIGDGVFIGAQAYIQGRYDGTCVIGDNVWIGPMAYFDARDLVIEDSVGWGPGAKVLGSTHTALPIDVPIIRTDLEIRPVRICAEADIGTNATILPGVTIGKGAIVGAGAVVVSDVEPFSVAAGVPAKFIRWRSENDPMTNMSREGRS”, the protein production result is recorded as “failed”.
For “KSLTLVLHRDSGSLGFNIIGGRPSVDNHDGSSSEGIFVSKIVDSGPAAKEGGLQIHDRIIEVNGRDLSRATHDQAVEAFKTAKEPIVVQVLRRT”, the protein production entry is “not failed”.
“MSDSKFLRGTLIVTLGTFLVKFLGMIYVFPFHALVGTEGGTLYTYGYIPYTIFLSIATAGVPLAVSKFVSKYNALGDYKTSRRMFRSGMVMMIVTGVLSFLVLYMTAPLFAEAMLGKQSVHSNIGEVTTIIRLVSFALIVVPAASLIRGYFQGHQSMGPTTVSQIIEQIIRIVFLLAGSFIVIKVLGGTVATAVGVATFAAFVSAVGALGVLIWYWLKRKKHLDQYLIEQTALESTVSTVQLFKELFAYAIPYVVIGLTIPLYQQIDTLTFNSIMQAIGQGDIAERALGIFTMWTHKLIMIPVSLATAFSLTLVPAITKSFTEKQYRYLKLQITQTFQANMFLTLPAVVGISSLAYPIYTAFYDSDPLGGQVLMWYAPVALLFALFTVTAAILQGINQQKHAIIALIMGVILKFVCNVIFIRYFGTVGAILATAVGFLVSVWYTNQQIKKYAHYSFGVVYKRTFQIAVLTLVMVVTVKLSQWILSFMISPDGRMGALITVAICAGIGGLVYGLLAIRTGVLERVFGGEALEKIQRKLGNRFKIKLKSKGA”: the protein production entry is recorded as “failed”.
The entry for “MKKRKLLAVTLLSTILLNSAVPLVVADTSLRNNTSSTDQPTTADTATDAESETAKKDKKSKETASQHDTQKDHKPSHTHPTPPSNDTKQTDQASSEATDKPNKDKNDTKQPDSSDQSTSSPKDQSSQKESQNKDGRPTPSPDQQKDPTPDKTPEKSADKIPEKATEKTPEPNRDAPKPIQPPLAAAAPVFIPWRESDKDLSKLKPSSRSSAAYVRHWTGDSAYTHNLLSRRYGITAEQLDGFLNSLGIHYDKERLNGKRLLEWEKLTGLDVRAIVAIAMAESSLGTQGVAKEKGANMFGYGAFDFNPNNAKKYSDEVAIRHMVEDTIIANKNQTFERQDLKAKKWSLGQLDTLIDGGVYFTDTSGSGQRRADIMTKLDQWIDDHGSTPEIPEHLKITSGTQFSEVPVGYKRSQPQNVLTYKSETYSFGQCTWYAYNRVKELGYQVDRYMGNGGDWQRKPGFVTTHKPKVGYVVSFAPGQAGADATYGHVAVVEQIKEDGSILISESNVMGLGTISYRTFTAEQASLLTYVVGDKLPRP” is “failed”; for “MPYEMKFKGVYVLAMEDNSSFKGKIEVGDTVTGVDGKSFKSSEELMNYIKAQKVNQKVTVQFIQDGKAKEATGKLIELPTDKKAGIGIGLTDHTLEHHHHHH” it is “not failed”.
As for “MLLSIITVAFRNLEGIVKTHASLAHLAQVEDISFEWIVVDGGSNDGTREYLENLNGIFNLRFVSEPDNGIYDAMNKGIAMAQGKFALFLNSGDIFHQNAANFVRKLKMQKDNVMITGDALLDFGDGHKIKRSAKPGWYIYHSLPASHQAIFFPVSGLKKWRYDLEYKVSSDYALAAKMYKAGYAFKKLNGLVSEFSMGGVSTTNNMELCADAKKVQRQILHVPGFWAELSWHLRQRTTSKTKALYNKV”, the protein production entry is “failed”.
Turning to “MCPAVVPDDPHALTAPSPWVVRWAAPLPAGARVLDVACGSGRHVRWLAARGLRVTGIDRDADALSGLSEAADTLIADIEDGLWPLPAEAVFDAVVVTNYLYRPLWPRLLACVAPGGRLIYETFAVGNETVGKPSNPAFLLAPGELLEAVRGQLRVIGYEDGFIAAPREAYVQRLCAVRESAGAQARRYAL”, the protein production result was “failed”.
For “MTPGTIFLSSQVLMPSEDDTKRFHLAEGQELFYLERVRTADGQPIVYCIDKIPMNILPNSFSHQQESMFDLLEKNSGSVISYAVTDIEPIGYHDTISPVLECDPETALLLLKQTHYDQHDKPVLYSLNYFRA”, the protein production result is “not failed”.
Regarding “GSHMEKVPGEMEIERRERSEELSEAERKAVQAMWARLYANCEDVGVAILVRFFVNFPSAKQYFSQFKHMEDPLEMERSPQLRKHACRVMGALNTVVENLHDPDKVSSVLALVGKAHALKHKVEPVYFKILSGVILEVVAEEFASDFPPETQRAWAKLRGLIYSHVTAAYKEVGWVQQVPNATTPPATLPSSGP”, the protein production result is reported as “not failed”.
